Test results reported in patent publication US20150158949A1 (MEDLMMUNE, published 2015).

T1: IFNAR1 (Interferon alpha receptor-1) (human, UniProt P17181 28-557)
T1 sequence (looked up): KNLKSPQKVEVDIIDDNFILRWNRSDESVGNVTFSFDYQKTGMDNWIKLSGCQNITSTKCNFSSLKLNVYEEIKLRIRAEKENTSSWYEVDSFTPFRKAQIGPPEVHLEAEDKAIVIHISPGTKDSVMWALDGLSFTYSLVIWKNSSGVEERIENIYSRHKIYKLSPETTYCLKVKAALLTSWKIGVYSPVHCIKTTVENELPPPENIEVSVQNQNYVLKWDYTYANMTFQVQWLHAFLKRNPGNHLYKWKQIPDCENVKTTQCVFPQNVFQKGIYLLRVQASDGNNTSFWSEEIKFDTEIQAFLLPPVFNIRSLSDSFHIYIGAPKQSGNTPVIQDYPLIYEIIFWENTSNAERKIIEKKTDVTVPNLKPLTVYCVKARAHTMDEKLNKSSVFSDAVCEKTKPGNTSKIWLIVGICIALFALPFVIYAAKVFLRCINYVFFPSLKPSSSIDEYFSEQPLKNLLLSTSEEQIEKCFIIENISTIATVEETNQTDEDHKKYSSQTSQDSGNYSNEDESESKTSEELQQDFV

B1: MEDI-546 (antibody, human IgG1, V domains shown)
VH: EVQLVQSGAEVKKPGESLKISCKGSGYIFTNYWIAWVRQMPGKCLESMGIIYPGDSDIRYSPSFQGQVTISADKSITTAYLQWSSLKASDTAMYYCARHDIEGFDYWGRGTLVTVSS
VL: EIVLTQSPGTLSLSPGERATLSCRASQSVSSSFFAWYQQKPGQAPRLLIYGASSRATGIPDRLSGSGSGTDFTLTITRLEPEDFAVYYCQQYDSSAITFGQGTRLEIK
B2: MEDI-546-Alexa647 (antibody, human IgG1, V domains shown)
VH: EVQLVQSGAEVKKPGESLKISCKGSGYIFTNYWIAWVRQMPGKCLESMGIIYPGDSDIRYSPSFQGQVTISADKSITTAYLQWSSLKASDTAMYYCARHDIEGFDYWGRGTLVTVSS
VL: EIVLTQSPGTLSLSPGERATLSCRASQSVSSSFFAWYQQKPGQAPRLLIYGASSRATGIPDRLSGSGSGTDFTLTITRLEPEDFAVYYCQQYDSSAITFGQGTRLEIK
modifications: Alexa647 dye conjugated to the antibody (sites and chain not stated)

What was measured:
[1] = target: T1, IFNAR1 (Interferon alpha receptor-1); experiment: cell-based or functional assay
[2] = target: T1, IFNAR1 (Interferon alpha receptor-1); experiment: live-cell confocal fluorescence imaging of IFNAR1-expressing THP-1 cells, 1 µg/mL, stained on ice, FcR blocked
Procedure: Reaction mixtures were purified from unincorporated fluorescent molecules using size-exclusion mini-columns provided in the kit. IFNAR1-expressing THP-1 cells were maintained in suspension using RPMI growth medium containing 10% FBS, and seeded in a fresh growth medium at 2×10^5 cells/mL overnight prior to the experiments. On the day of experiments, THP-1 cells were washed and resuspended to a concentration of 3×10⁶ cells/mL.
Cell suspensions were first stained for 10-20 min with cytosol dye, CFSE, from Invitrogen (Life Technologies Corp, Carlsbad, Calif.) in a CO₂ incubator at 37° C. Excess CFSE was removed by two washes with 1×PBS. […] Following the removal of unincorporated antibodies by centrifugation, cells were resuspended to initial volumes, and dispensed into the wells of 384-well imaging plates.

Binder | IC50 (nM), bootstrap median [1] [nM] | IC50 (nM): Potency, MEDI-546 concentration corresponding to half-maximum inhibition of GS production [1] [nM] | binding result [2]
B1 | 0.772 | 0.978 | 
B2 |  |  | binds
